Paper PMC8420576

Target: SARS-CoV-2 Spike RBD (residues 334–527), C-terminal Avi-His6 tag, biotinylated (SARS-CoV-2) (UniProt P0DTC2)
Experiment: BLI

Work on VHH72 yielded a Kd of 27 nM and a koff of 0.0036 s⁻¹.
